Source: US20040006777

Molecular target: Raytide (synthetic peptide substrate)

B1: T7 tagged Lyp1 (protein)
chain: MDQREILQKFLDEAQSKKITKEEFANEFLKLKRQSTKYKADKTYPTTVAENAKNIKKNRYKDILPYDYSRVELSLITSDEDSSYINANFIKGVYGPKAYIATQGPLSTTLLDFWRMIWEYSVLIIVMACMEYEMGKKKCERYWAEPGEMQLEFGPFSVSCEAEKRKSDYIIRTLKVKFNSETRTIYQFHYKNWPDHDVPSSIDPILELIWDVRCYQEDDSVPICIHCSAGCGRTGVICAIVDYTWMLLKDGIIPENFSVFSLIREMRTQRPSLVQTQEQYELVYNAVLELFKRQMDVIRDKHSGTESQAKHCIPEKNHTLQADSYSPNLPKSTTKAAKMMNQQRTKMEIKESSSFDFRTSEISAKEELVLHPAKSSTSFDFLELNYSFDKNADTTMKWQTKAFPIVGEPLQKHQSLDLGSLLFEGCSNSKPVNAAGRYFNSKVPITRTKSTPFELIQQRETKEVDSKENFSYLESQPHDSCFVEMQAQKVMHVSSAELNYSLPYDSKHQIRNASNVKHHDSSALGVYSYIPLVENPYFSSWPPSGTSSKMSLDLPEKQDGTVFPSSLLPTSSTSLFSYYNSHSSLSLNSPTNISSLLNQESAVLATAPRIDDEIPPPLPVRTPESFIVVEEAGEFSPNVPKSLSSAVKVKIGTSLEWGGTSEPKKFDDSVILRPSKSVKLRSPKSELHQDRSSPPPPLPERTLESFFLADEDCMQAQSIETYSTSYPDTMENSTSSKQTLKTPGKSFTRSKSLKILRNMKKSICNSCPPNKPAESVQSNNSSSFLNFGFANRFSKPKGPRNPPPTWNI
33P release from labelled Raytide, in vitro phosphatase assay with immunoprecipitates: a seven fold increase in ^33P release from the substrate incubated with Lyp immunoprecipitates compared to control immunoprecipitates
